Results as given in US20250147051A1, “METHOD FOR DETECTING A TAU PROTEIN IN A SALIVA SAMPLE” (GTINVENT LIMITED, priority 2022, published 2025).

Tests used:
dGA = dGA (Homo sapiens, UniProt P10636); assay: Biacore X100 SPR binding kinetics of anti-tau scAbs (scAb captured via HuCk), analyte dGA; settings: lead scAbs; for ka: Table 24; for dissociation rate constant (kd): Table 24, dissociation rate
Description: Surface plasmon resonance (SPR) is widely regarded as the gold standard for real time measurement of protein-protein interactions such as antibody binding. All SPR experiments were carried out using a Biacore X100 machine and HBS EP+ running buffer (GE Healthcare). A ‘capture’ method was followed for affinity measurements, where an anti-human constant kappa chain (HuCk) antibody was conjugated to the surface of a CM5 sensor chip using an amine coupling kit and scAb molecules were immobilised via their HuCk domain. Amine coupling is a very common approach for immobilising the ligand to the chip surface. The chip surface has a dextran matrix derivatised with carboxyl groups, which after activation with N-hydroxysuccinimide (NHS) and 1-ethyl-3-(3-dimethylaminopropyl) carbodiimide (EDC), form reactive succinimide esters which allows the covalent capturing of the ligand via any available primary amine groups (e.g. Lysine) on the ligand (in this case anti-HuCk antibody). The capture antibody was diluted 1/100 in 10 mM Sodium acetate buffer pH 5.0 and passed over the activated chip surface for a period of at least 420 s. Final ligand immobilisation levels over 12,000 RU were deemed to be satisfactory.
Following immobilisation, the level of each scAb to be captured was identified using the standard SPR equation with a theoretical RMax of 100 RU. Analyte MW refers to the molecular weight of hT40 or dGA/dGAE molecules, while ligand MW refers to the molecular weight of the scAbs tested. RLis the desired capture level and S refers to the stoichiometric ratio:
The scAb to be tested was added only to flow cell 2 so that flow cell 1 could act as a control to subtract any interaction with the analyte and the chip surface. Both single and multi-cycle runs were utilised using wizards developed in the Biacore X100 control software which are both accepted methods of kinetic analysis (Karlsson, R., et al. Analyzing a kinetic titration series using affinity biosensors (2006) Analytical Biochemistry 349:136-47). The multi-cycle protocol was as follows-Three start-up cycles composed of an initial capture, to the desired level, of the scAb to be tested was performed followed by a 30 s injection of glycine buffer pH 2.0 after each cycle to regenerate the chip surface. The regeneration step removed any captured scAb whilst leaving the capture antibody intact and able to repeat the capture for the next cycle. Following three start-up cycles increasing concentrations (0.15625 nM-100 nM) of the target to be tested were added to the chip surface after the desired scAb capture. The target was added for a 120 s association period and 420 s dissociation period followed by another regeneration, 30 s injection of glycine buffer pH 2.0 in between each cycle.
The single cycle kinetics protocol was similar and utilised the same level of scAb capture. Three start-up cycles were used followed by 5 increasing concentrations of the analyte (6.25 nM-100 nM) for an association period of 120 s followed by a dissociation period of 420 s for each concentration. In single cycle kinetics the regeneration step was performed only after the final analyte concentration was added. Binding responses were analysed in Biacore X100 evaluation software and data fitted to a 1:1 binding model to obtain kinetic and affinity characterisation.

dGAE aggregates = biological target: T1, dGAE aggregates (Homo sapiens, UniProt P10636); assay: Sandwich ELISA LoD for SDS Triton X-100 treated dGAE aggregates; assay type: binding; settings: label = detection scAb
T1 construct: host or cells: aggregated in house: 100 μM dGAE with DTT, 700 rpm, 37 °C, 24 h
T1 sequence (P10636 614-708): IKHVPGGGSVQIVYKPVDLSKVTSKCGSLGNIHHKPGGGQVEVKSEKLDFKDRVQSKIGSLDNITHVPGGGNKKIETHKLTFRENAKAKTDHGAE
Description: For aggregation, 1000 μL 100 μM dGAE+10 μL 10 mM DTT was added to a ‘LoBind’ microfuge tubes and agitated at 700 RPM/37° C. for 24 hours. Resulting sample centrifuged at 17,000×g/4° C. for 60 min and supernatant discarded to remove left over monomer. Pellet resuspended in half the original volume for future experiments and hereafter referred to as ‘aggregates’. 1 μl of aggregates was added to 1 ml of PBS and SDS was added to a final concentration of 1% (w/v). This was left to incubate on lab bench for 1 h with gentle agitation every 15 minutes. In order to neutralise the SDS effect on ELISA, Triton X-100 added to a final concentration of 3% (v/v) and mixed gently by pipetting to prevent any bubble formation. 200 μl added of this mix was to the first well of an ELISA plate coated with 1 μg/ml S1D12 mAb and blocked with 2% MPBS. Similarly aggregates treated with only SDS or Triton X-100, untreated aggregates, dGAE monomers treated with only SDS or SDS+Titon X-100 were also added to designated wells as controls. All samples were then double diluted across the plate in final volumes of 100 μl. The final column was left with no protein to act as a blank. This was allowed to stand at room temperature for 1 hour followed by the addition of detection scAb-S1G2 at 10 μg/ml. Anti-HuCk HRP labelled secondary antibody was added as described previously and ELISA data generated was represented using the graph below. In addition, limits of detection (LoD) of various core binding antibody pairing for SDS Triton X-100 treated dGAE aggregates were calculated using the above describe ELISA method and substituting capture mAbs and detection scAbs as shown in Table 30.

tau = assay: Western blot of mouse brain homogenates (WT, L66+/+, L1+/+); settings: 20 μg brain homogenate protein, 5-month-old WT, L1+/+ mice
Description: Protein equivalent to 20 μg from each brain extract was separated using 4-20% bis-tris gels and run in 1×MES buffer. […] A clear band is visible in the lanes containing L66^+/+ samples, but no other bands are detectable (WT or L1^+/+). […] Once again, a band having relative mobility of 65 kDa is visible in the L66 sample with no other reactive bands present.
This band most likely corresponds to endogenous mouse tau which is of a similar size. In the L66^+/+ samples, a second band running at approximately 68 kDa is also detected. The presence of numerous other bands indicates proteolytic truncation of tau within brain homogenates.

core region tau = assay: S1D12 immunotherapy 6-week repeat-dose mouse study, plasma tau by CA4-S1G2 core-core Simoa assay; assay type: in vivo; settings: 30 mg/kg i.p. once per week for six weeks, CA4-S1G2 Simoa
Description: A total of 12 wildtype, 12 Line 1 and 12 Line 66 female mice were used in this study—Line 1 and Line 66 are transgenic mouse models of tauopathy (Melis et al., 2015). Animals were 2 months old at the beginning of the study. Mice of each genotype were injected intraperitoneally (i.p.) with either vehicle or S1D12 mAb (30 mg/kg), once per week, for six consecutive weeks.
Seven days post final dose, cardiac puncture blood sampling was performed. mice were anaesthetised using an overdose of sodium pentobarbital (i.p.) and blood was collected via cardiac puncture through a Plastipak syringe pre-rinsed with heparinised saline (10 U/mL) and transferred into a plastic vial containing lithium heparin anticoagulant. Blood samples were centrifuged to obtain plasma at 2,000×g for 5 min at 6° C.
In order to monitor the ‘treatment effect’ of S1D12 mAb, plasma tau of vehicle control and antibody treated L66^+/+ mice were assessed via a core-core homebrew Simoa® assay to investigate changes in core tau pools in these mice.

dGA, sequence (P10636 614-707): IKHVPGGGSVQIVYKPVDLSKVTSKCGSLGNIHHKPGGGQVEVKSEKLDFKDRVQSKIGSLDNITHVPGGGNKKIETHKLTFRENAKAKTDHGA

B1: NS2A1: anti-tau clone, SEQ ID NO: 220 (protein)
scFv: QVQLQESGPSLVKPSQTLSLTCTVSGFSLSTNSVGWVRQAPGKAPEWVAGIDTDGEEGFNPVLKSRLSITRDTSKSQVSLSLSNVTSEDTAVYYCGRSYRTDGLAYGYVQAIDYWGPGLLVTISSEGKSSGASGESKVDDQSVLTQPSSVSGSPGQTVSITCSGSYIGSSGVGWFQQLPGSGLRTIIVASDGRPSGVPDGFSMSKSGNTATLTISSLQAEDEADYFCGSSDRTQYTGLFGSGTRLTVLG
modifications: NS2A1 amino acid sequence
- ka (dGA): 188000 M⁻¹ s⁻¹
- dissociation rate constant (kd) (dGA): 0.00102 s⁻¹

B2: CA12: anti-tau clone, SEQ ID NO: 372 (protein)
scFv: QVQLQGSGPSLVKPSQTLSLTCTVSGFSFDSYYVGWVRQAPGKALEWLGNIYSTGRAFYNPALKSRLSITRDTSKSQVSLSVSSVTIEDTALYYCVRGSYYHGGGNGMVDFFDYWSPGLLVTVSSEGKSSGASGESKVDDQVVRTQPSSVSGSLGQRVSITCSGSSSNVGYGNYVGWFQQVPGSAPKLLIYAATSRASGVPDRFSGSRSGNTATLTIDSLQAEDEADYYCSSYQRGNTGVFGSGTRLTVLG
modifications: CA12 amino acid sequence
- LoD, S1D12 mAb capture, +SDS Triton dGAE agg. (dGAE aggregates): 2 ng/mL
- LoD, direct immobilisation of dGAE aggregates, +SDS Triton dGAE agg. (dGAE aggregates): 16 ng/mL

B3: CC7: anti-tau clone, SEQ ID NO: 365 (protein)
scFv: QVQLQESGPSLVKPSQTLSLTCTVSGFSLTSNAVIWVRQAPGKAPEWVALIDVDGDAAYDPALKSRLSITRDTSKSQVSLSLRSVTTEDTAVYYCARDYGSWGYVSDIDYWGPGLLVTVSSEGKSSGASGESKVDDRVVRTQPSSVSGSLGQRVSITCSGSYITGSSVGWFQQVPGSGLKTVIYDNNDRPSGVPDRFSGSKSGDTATLTISSLQAEDEADYYCASYDTSNIGLFGSGTRLTVLG
modifications: CC7 amino acid sequence
- Western blot reactivity (tau): specificity for human tau

B4: S1D12 mAb: S1D12 reformatted as mAb; heavy chain SEQ ID NO: 445, light chain SEQ ID NO: 446 (antibody)
heavy: QVQLQESGPSLVKPSQTLSLTCTVSGFSLNNNAVGWVRQAPGKVPESLVGCSSDGTCYYNSALKSRLDITRDTSKNQISLSLSSVTTDDAAVYYCTRGHYSIYGYDYLGTIDYWGPGLLVTVSSAKTTAPSVYPLAPVCGDTTGSSVTLGCLVKGYFPEPVTLTWNSGSLSSGVHTFPAVLQSDLYTLSSSVTVTSSTWPSQSITCNVAHPASSTKVDKKIEPRGPTIKPCPPCKCPAPNLLGGPSVFIFPPKIKDVLMISLSPIVTCVVVDVSEDDPDVQISWFVNNVEVHTAQTQTHREDYNSTLRVVSALPIQHQDWMSGKEFKCKVNNKDLPAPIERTISKPKGSVRAPQVYVLPPPEEEMTKKQVTLTCMVTDFMPEDIYVEWTNNGKTELNYKNTEPVLDSDGSYFMYSKLRVEKKNWVERNSYSCSVVHEGLHNHHTTKSFSRTPGK
light: QAVLTQPSSVSGSLGQRVSITCSGSSSNVGGGNSVGWYQHLPGSGLKTIIYDTNSRPSGVPDRFSGSRSGNTATLTINSLQAEDEGDYYCVTGDSTTHDDLVGSGTRLTVLGGQPKSSPSVTLFPPSSEELETNKATLVCTITDFYPGVVTVDWKVDGTPVTQGMETTQPSKQSNNKYMASSYLTLTARAWERHSSYSCQVTHEGHTVEKSLSRADCS
modifications: S1D12 mAB Heavy Chain; S1D12 mAB Light Chain
- plasma tau, wildtype mice with treatment (core region tau): 3.57 (0.22) ng/ml
- plasma tau, L1 mice with S1D12 treatment (core region tau; above upper limit of detection): > 100 ng/mL

B5: S1E12: anti-tau clone, SEQ ID NO: 218 (protein)
scFv: QVQLQESGPSLVKPSQTLSLTCTVSGFSLGSNSVGWVRQAPGKAPEWVAGIDTDGEEGYNPALNSRLSITRDTSKSQVSLSLSSVTSEDTAVYYCGRSYRADGLAYGYVQAIDYWGPGLLVTVSSEGKSSGASGESKVDDRVVRTQPSSVSGSLGQRVSITCSGSFIGISSVGWFQQLPGSGLRTIIVASDGRPSGVPDRFSMSKSGNTATLTISSLQAEDEADYFCGSSDRTQYTGVFGSGTRLTVLG
modifications: S1E12 amino acid sequence
- ka (dGA): 2.99e+06 M⁻¹ s⁻¹
- dissociation rate constant (kd) (dGA): 0.001627 s⁻¹

B6: CA9: anti-tau clone, SEQ ID NO: 371 (protein)
scFv: QVQLQESGPSLVKPSQTLSLTCTVSGFSLTSNSVGWVRQAPGKAPEWVAGIDTDGEEGYNPALNSRLSITRDTSKSQVSLSLSSVTSEDTAVYYCGRSYRSDGLAYGYVQAIDYWGPGLLVTVSSEGKSSGASGESKVDDQAVLTQPASVSGSLGQRVSITCSGSFIGISSVGWFQQLPGSGLRTIIVASDGRPSGVPDRFSMSKSGNTATLTISSLQAEDEADYFCGSSDRTQYTGVFGSGTRLTVLG
modifications: CA9 amino acid sequence
- LoD, S1D12 mAb capture, +SDS Triton dGAE agg. (dGAE aggregates): 4 ng/mL
- LoD, direct immobilisation of dGAE aggregates, +SDS Triton dGAE agg. (dGAE aggregates): 40 ng/mL
